Measurements published in publication doi:10.1101/2023.07.15.549169.

Legend:
SMAD4 WT;SMAD3 P124S = assay: TR-FRET
SMAD4 R100T;SMAD3 WT = assay: TR-FRET

Q: What does the source list for 5'-FAM-SBE4?
A: binding signal (% of WT PDI signal) (SMAD4 WT;SMAD3 P124S): 25; binding signal (% of WT PDI signal) (SMAD4 R100T;SMAD3 WT): 25
